From patent US8106168B2, “Metalloproteinase binding proteins” (Dyax Corp., priority 2005, dated 2012)
Positions count from the first letter of the chain named.

B1: M0041-C11: Fab that binds human MMP-14; DNA LV SEQ ID NO: 110, HV SEQ ID NO: 111 (antibody, V domains shown)
VL: QDIQMTQSPSSLSASVGDRVTITCRASQRIGSYLNWYQQNSGKAPRLLIYGASNLESGVPSRFSGRGSGTDFTLTISSLQPEDFATYYCQQSNSTPHTFGQGTKVEIK
VH: EVQLLESGGGLVQPGGSLRLSCAASGFTFSQYPMSWVRQAPGKGLEWVSSIGPGGWTWYADSVKGRFTISRDNSKNTLYLQMNSLRAEDTAVYYCARTATRIFGVVIMGRAFDIWGQGTMVTVSS
modifications: Synthetically generated oligonucleotide
B2: M0041-B11: Fab that binds human MMP-14; DNA LV SEQ ID NO: 108, HV SEQ ID NO: 109 (antibody, V domains shown)
VL: QSVLTQDPAVSVALGQTVRITCQGDSLRSYSASWYQRKPGQAPLLVIYRKTNRPSGIPDRFSGSSSGNTASLTITGAQAEDESDYYCNSRDSSGNHLFGGGTKLTVL
VH: EVQLLESGGGLVQPGGSLRLSCAASGFTFSQYSMHWVRQAPGKGLEWVSSIVPSGGMTAYADSVKGRFTISRDNSKNTLYLQMNSLRAEDTAVYYCAKISRGNDAFDIWGQGTMVTVSS
modifications: Synthetically generated oligonucleotide
B3: M0043-G01: Fab that binds human MMP-14; DNA LV SEQ ID NO: 132, HV SEQ ID NO: 133 (antibody, V domains shown)
VL: QDIQMTQSPSAMSASVGDRVTITCRASQGISSWLAWYQQKPGKAPKLLIYAASSLQSGVPSRFSGSGSGTDFTLTISSLQPEDFATYYCQQANSFPLTFGGGTKVEIK
VH: EVQLLESGGGLVQPGGSLRLSCAASGFTFSFYSMHWVRQAPGKGLEWVSGISSSGGVTKYADSVKGRFTISRDNSKNTLYLQMNSLRAEDTAVYYCARARSTRGFDYWGQGTLVTVSS
modifications: Synthetically generated oligonucleotide
B4: M0044-B03: Fab that binds human MMP-14; DNA LV SEQ ID NO: 136, HV SEQ ID NO: 137 (antibody, V domains shown)
VL: B3 VL with A11S, M12V, G29N, S31Y, K40R, Q56H, N93K, L97V
VH: EVQLLESGGGLVQPGGSLRLSCAASGFTFSQYHMMWVRQAPGKGLEWVSSIGSSGYTKYADSVKGRFTISRDNSKNTLYLQMNSLRAEDTAVYYCAGAVAGTGAFDYWGQGTLVTVSS
modifications: Synthetically generated oligonucleotide
B5: M0043-A09: Fab that binds human MMP-14; DNA LV SEQ ID NO: 126, HV SEQ ID NO: 127 (antibody, V domains shown)
VL: QSVLTQPPSVSKDLRQTATLTCTGNSNNVGYQGAAWLQQHQGHPPKVLSYRNNNRPSGISERFSASRSGNTASLTITGLQPEDEADYYCSAWDSSLTAWVFGGGTKLTVL
VH: EVQLLESGGGLVQPGGSLRLSCAASGFTFSFYDMTWVRQAPGKGLEWVSSIWSSGGVTDYADSVKGRFTISRDNSKNTLYLQMNSLRAEDTAVYYCTRASSGYYDAFDIWGQGTMVTVSS
modifications: Synthetically generated oligonucleotide
B6: M0032-B07: Fab that binds human MMP-14; DNA LV SEQ ID NO: 20, HV SEQ ID NO: 21 (antibody, V domains shown)
VH: EVQLLESGGGLVQPGGSLRLSCAASGFTFSPYLMHWVRQAPGKGLEWVSSIYPSGGITQYADSVKGRFTISRDNSKNTLYLQMNSLRAEDTAVYYCARFFPSHRDYTAFDTWGRGTLVTVSS
VL: QSVLTQEPSLTVSPGGTVTLTCASNTGAVTSGSYANWFQQKPGLTPRALIYSGTNKYSWTPARFSGSLFGGKAALTLSGVLPEDEAEYYCLVYYGGVWVFGGGTKLTVL
modifications: Synthetically generated oligonucleotide
B7: M0041-D03: Fab that binds human MMP-14; DNA LV SEQ ID NO: 112, HV SEQ ID NO: 113 (antibody, V domains shown)
VL: QDIQMTQSPSSLSASVGDRITVTCRASQSITNYLNWYQQKPGKAPKLLIYAASTLQSGVPSRFSGSGSGTDFTLTISRLEPEDFAVYYCQQYGSSPTFGQGTKVEVK
VH: EVQLLESGGGLVQPGGSLRLSCAASGFTFSFYNMTWVRQAPGKGLEWVSSIYSSGGNTDYADSVKGRFTISRDNSKNTLYLQMNSLRAEDTAVYYCARDSLSHYYYGMDVWGQGTTVTVSS
modifications: Synthetically generated oligonucleotide
B8: M0041-H09: Fab that binds human MMP-14; DNA LV SEQ ID NO: 118, HV SEQ ID NO: 119 (antibody, V domains shown)
VL: QDIQMTQSPGTLSLSPGERATLSCRASQSLSGDYLAWYQQKIGQAPRLLIFGASRRPTGIPDRFSGSGSGTDFALTISRLEPEDFAVYYCQQYGSLITFGQGTRLEIK
VH: EVQLLESGGGLVQPGGSLRLSCAASGFTFSVYEMTWVRQAPGKGLEWVSGIGSSGGMTFYADSVKGRFTISRDNSKNTLYLQMNSLRAEDTAVYYCARIRYSGSYGWHYMDVWGKGTTVTVSS
modifications: Synthetically generated oligonucleotide
B9: M0041-B03: Fab that binds human MMP-14; DNA LV SEQ ID NO: 106, HV SEQ ID NO: 107 (antibody, V domains shown)
VL: QDIQMTQSPATLSASVGDRVTISCRASQNISNWLAWYQQKPGKAPKLLIYTASTLHRGVPSRFSGSGSGTDFTLTITSLQPEDFATYYCQQANTFPWTFGQGTKVEIK
VH: EVQLLESGGGLVQPGGSLRLSCAASGFTFSMYMMWWVRQAPGKGLEWVSVISSSGGFTSYADSVKGRFTISRDNSKNTLYLQMNSLRAEDTAVYYCARLRYSNFVGGLDVWGQGTTVTVSS
modifications: Synthetically generated oligonucleotide
B10: M0043-F01: Fab that binds human MMP-14; DNA LV SEQ ID NO: 130, HV SEQ ID NO: 131 (antibody, V domains shown)
VL: QSALTQPASVSGSPGQSITISCTGTSSDIGAYRYVSWYQQRPGKAPKLMIFDVTKRPSGVSNRFSGFKSGNTASLTISGLQAEDEADYYCSSFTSGSTFVFGTGTKVTVL
VH: EVQLLESGGGLVQPGGSLRLSCAASGFTFSKYSMYWVRQAPGKGLEWVSSISSSGGYTAYADSVKGRFTISRDNSKNTLYLQMNSLRAEDTAVYYCAIPWGSGSSWGQGTLVTVSS
modifications: Synthetically generated oligonucleotide
B11: M0041-H11: Fab that binds human MMP-14; DNA LV SEQ ID NO: 120, HV SEQ ID NO: 121 (antibody, V domains shown)
VL: QSELTQDPAVSVALGQTVRITCQGDSLRSYYASWYQQKPGQAPVLVIYGKNNRPSGIPDRFSGSSSGNTASLTITGAQAEDEADYYCNSRDSSGNHVVFGGGTKLTVL
VH: EVQLLESGGGLVQPGGSLRLSCAASGFTFSMYPMNWVRQAPGKGLEWVSSISSSGGWTKYADSVKGRFTISRDNSKNTLYLQMNSLRAEDTAVYYCARVFFGYDSSGYPYYYYGMDVWGQGTTVTVSS
modifications: Synthetically generated oligonucleotide
B12: M0041-E11: Fab that binds human MMP-14; DNA LV SEQ ID NO: 116, HV SEQ ID NO: 117 (protein)
chain 1: QDIQMTQSPSSLSAFVGDRVIITCRASQDISVYVNWYQQSSGKAPKLLIYGASSLQSGVPSRFSGSGSGTDFTLTISSLQPEDFASYFCQQSYNLPFTFGGGTNVQIK
chain 2: EVQLLESGGGLVQPGGSLRLSCAASGFTFSQYNMQWVRQAPGKGLEWVSGIVPSGGWTPYADSVKGRFTISRDNSKNTLYLQMNSLRAEDTAVYYCARGVRYGLDYWGQGTLVTVSS
modifications: Synthetically generated oligonucleotide
B13: M0043-C03: Fab that binds human MMP-14; DNA LV SEQ ID NO: 128, HV SEQ ID NO: 129 (antibody, V domains shown)
VL: QDIQMTQSPASLYLSPGERATLSCRASQSVSSNLAWYQQKPGQAPRLLIYGASTRATGIPARFSGSGSGTEFTLTISSLQSADFAVYYCQQYDNWPPLTFGGGTKVEIK
VH: EVQLLESGGGLVQPGGSLRLSCAASGFTFSYYAMDWVRQAPGKGLEWVSSIGSSGGDTVYADSVKGRFTISRDNSKNTLYLQMNSLRAEDTATYYCARDPRQPGVFDYWGQGTLVTVSS
modifications: Synthetically generated oligonucleotide
B14: M0044-D08: Fab that binds human MMP-14; DNA LV SEQ ID NO: 138, HV SEQ ID NO: 139 (antibody, V domains shown)
VL: QYELTQPLSVSVALGQTASISCWGHNIRIKNVHWYQQKPGQAPVVVMYIPERFSGSTSGNTATLTISGAQAGDEADYYCQVWDSSTVVFGGGTKLTVL
VH: EVQLLESGGGLVQPGGSLRLSCAASGFTFSKYPMSWVRQAPGKGLEWVSSIWPSGGHTFYADSVKGRFTISRDNSKNTLYLQMNSLRAEDTAVYYCAKNPGLRYAFDNWGRGTMVTVSS
modifications: Synthetically generated oligonucleotide
B15: M0042-B07: Fab that binds human MMP-14; DNA LV SEQ ID NO: 122, HV SEQ ID NO: 123 (antibody, V domains shown)
VL: QDIQMTQSPLSLPVTPGEPASISCRSSQSLLHSNGYNYLDWYVQKPGQSPQLLIYLGSGRASGVPDRFSGSGSGTDFTLKINRVEAEDVGVYYCMQALQTPWTFGQGTKVEIK
VH: EVQLLESGGGLVQPGGSLRLSCAASGFTFSPYSMFWVRQAPGKGLEWVSVIYPSGGGTIYADSVKGRFTISRDNSKNTLYLQMNSLRAEDTAVYYCARSRESCDADTCYQYFQEWGQGTLVTVSS
modifications: Synthetically generated oligonucleotide

Each molecule was assayed against MMP-14 (Homo sapiens, UniProt P50281) (assay: Selection and phage ELISA screening of anti-MMP-14 Fabs). Settings: Fab from FAB310 phage display library.
Assay type: binding
In short: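 The FAB310 phage library was panned on biotinylated MMP-14, alone or complexed with bead-bound TIMP-2, at 500 nM and then 100 nM over three rounds. Phage was eluted with 2.5 μM TIMP-2, then 100 mM TEA. For ELISA, 95 clones per round were screened against 1 μg/ml biotinylated MMP-14 captured on streptavidin in TRIS/5 mM CaCl2, pH 7.5.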

Bind to human MMP-14, bind to human MMP-14:
B1, B2, B3, B4, B5, B6, B7, B8, B9, B10, B11, B12, B13, B14, B15
